Assay results: publication PMC9293652 (The Journal of Biological Chemistry, 2022)
Where two headings read alike, the source gives them in different places.

T1: WWOX WW1-WW2 tandem domain (amino acids 16-91) (human)
T1 chain: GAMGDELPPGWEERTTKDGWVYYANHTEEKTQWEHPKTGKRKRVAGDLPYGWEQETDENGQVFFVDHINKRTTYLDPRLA

T2: WWOX WW1 (amino acids 16-50) (human)
T2 chain: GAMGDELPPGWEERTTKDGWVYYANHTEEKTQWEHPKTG

T3: WWOX WW2 (amino acids 57-91) (human)
T3 chain: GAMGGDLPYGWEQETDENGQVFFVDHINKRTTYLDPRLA


Experiments:
[1] = biological target: WWOX WW1-WW2 tandem domain (amino acids 16-91) (human); assay: ITC
[2] = biological target: WWOX WW1-WW2 tandem domain (amino acids 16-91) (human); assay: NMR titration
[3] = biological target: T1, WWOX WW1-WW2 tandem domain (amino acids …); assay: NMR titration
[4] = biological target: T2, WWOX WW1 (amino acids 16-50); assay: ITC
[5] = biological target: T1, WWOX WW1-WW2 tandem domain (amino acids …); assay: ITC
[6] = biological target: T1, WWOX WW1-WW2 tandem domain (amino acids …); assay: NMR titration
[7] = biological target: T3, WWOX WW2 (amino acids 57-91); assay: ITC

Row | Kd [1] [µM] | KD WW1 (based on W44) [2] [µM] | KD WW1 (based on W44) [3] [µM] | Kd [5] [µM] | dH [5] [kcal/mol] | KD WW2 (based on V73) [6] [µM] | Molecule | other results
1 | 30 | 10 |  |  |  |  | ErbB4 peptide PY3 (1293-1305) | dH [1]: -12.1 kcal/mol; KD WW2 (based on V73) [2]: > 1000 µM
2 | > 100 | 21 |  |  |  |  | ErbB4 peptide PY1 (1027-1039) | 
3 | > 100 | 15 |  |  |  |  | ErbB4 peptide PY2 (1048-1060) | 

The next lines start with the molecule.

Row | Molecule | Kd [1] [µM] | KD WW1 (based on W44) [2] [µM] | KD WW1 (based on W44) [3] [µM] | Kd [5] [µM] | dH [5] [kcal/mol] | KD WW2 (based on V73) [6] [µM] | other results
4 | GTVLPPPPYRHRNGGGGGTVLPPPPYRHRN [ErbB4 double-motif peptide PY3PY3 (polyglycine linker)] |  |  | 0.6 ± 0.3 | 3.1 | -24.9 | 40 ± 20 | Kd [4]: 50 µM; dH [4]: -39 kcal/mol
5 | AFNIPPPIYTSRAGGGGGTVLPPPPYRHRN [ErbB4 double-motif peptide PY1PY3 (polyglycine linker)] |  |  | 6 ± 1 | 8 | -22 | 80 ± 20 | 
6 | GTVLPPPPYRHRN [ErbB4 peptide PY3 (1293-1305)] |  |  |  |  |  |  | Kd [4]: 78 µM; dH [4]: -23 kcal/mol; Kd [7]: > 200 µM
7 | AFNIPPPIYTSRARIDSNRSEIGHSPPPAYTPMS [ErbB4 double-motif peptide PY1PY2 (1027-1060, natural linker)] |  |  | 10 ± 2 | 14 | -39 | ~1000 | 
8 | AFNIPPPIYTSRAGGGGGHSPPPAYTPMS [ErbB4 double-motif peptide PY1PY2S (natural linker replaced by polyglycine)] |  |  | 2 ± 1 | 21 | -29 | 70 ± 20 | 
